pKd: −log10 of the molar value.
Test system: tau ΔMTBD-DBR (1N4R) del242-265, P10636-7
Assay: EMSA
Settings: 10 mM NaCl; text gives 430; EMSA: 20 nM DNA or nucleosome, 20 mM HEPES pH 7.2, 10 mM NaCl (or 150), 0.5 mM TCEP, 0.1% Tween-20, 5% sucrose, room temperature 20 min; FA: 10 nM DNA, same …

Chain of tau ΔMTBD-DBR (1N4R) del242-265, P10636-7 (P10636 other isoform, or with tags, fused parts or gaps mutant): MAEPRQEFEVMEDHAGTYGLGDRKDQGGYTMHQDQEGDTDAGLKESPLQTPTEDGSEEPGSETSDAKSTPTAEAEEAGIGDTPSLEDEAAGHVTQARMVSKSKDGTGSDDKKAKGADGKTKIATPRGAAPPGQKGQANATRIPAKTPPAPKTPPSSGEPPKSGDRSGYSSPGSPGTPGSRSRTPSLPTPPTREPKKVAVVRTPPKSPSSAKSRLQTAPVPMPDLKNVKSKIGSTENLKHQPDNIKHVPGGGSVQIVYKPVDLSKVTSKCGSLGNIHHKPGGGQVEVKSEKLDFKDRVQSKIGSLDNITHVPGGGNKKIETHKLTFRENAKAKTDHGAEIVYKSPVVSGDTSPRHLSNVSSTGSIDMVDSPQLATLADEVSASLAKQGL

## ACTACGCGGCCGCCCTGGAGAATCCCGGTGCCGAGGCCGCTCAATTGGTCGTAGACAGCTCTAGCACCGCTTAAACGCACGTACGCGCTGTCCCCCGCGTTTTAACCGCCAAGGGGATTACTCCCTAGTCTCCAGGCACGTGTCAGATATATACATCCTGTGCATGTAAGATCCAGT (double strand) [177 bp DNA (601)]
  pKd: 6.37
